{"source": "patent US12338268B2", "about": "“Compositions and methods for treating protein aggregation-associated diseases” (The Board of Trustees of the Leland Stanford Junior …, priority 2019, dated 2025)", "molecules": {"B1": {"name": "NAC: nascent polypeptide-associated complex, heterodimer of αNAC and βNAC; species not given at the place (C. elegans icd-1/icd-2 when overexpressed in worms) (protein)", "chain 1": "MTGSTETRQKEVKEPQVDVSDDSDNEAVEQELTEEQRRVAEAAGLGDHIDKQAKQSRSEKKARKLFSKLGLKQVTGVSRVCIRKSKNILFVINKPDVFKSPGSDTYIIFGEAKIEDLTQHAQMSAIENLKPTREAPQLKTVEEDENEDVEEDSTGIEEKDIELVISQANTTRNKAIRALKEADNDIVNAIMSLTM", "chain 2": "MMDSKAIAERIKKLQAQQEHVRIGGKGTPRRKKKVIHKTAAADDKKLQSNLKKLSVTNIPGIEEVNMIKDDGTVIHFNNPKVQTSVPANTFSVTGSADNKQITEMLPGILNQLGPESLTHLKKLANNVTKLGPDGKGEDEDVPELVGDFDAASKNETKADEQ"}}, "key": {"[1]": {"target": "T1, mutant Huntingtin exon 1 (mHttQ51) (Homo sapiens, UniProt P42858, INS38QQQQQQQQQQQQQQQQQQQQQQQQQQQQQQQ)", "T1 construct": "mutant Huntingtin exon 1 containing a pathogenic stretch of 51 glutamines (mHttQ51); GST (N, cleaved yes); made in house; host or cells: E. coli Rosetta 2(DE3) pLysS", "T1 sequence (P42858 with tags, fused parts or gaps with the stated changes limits assumed)": "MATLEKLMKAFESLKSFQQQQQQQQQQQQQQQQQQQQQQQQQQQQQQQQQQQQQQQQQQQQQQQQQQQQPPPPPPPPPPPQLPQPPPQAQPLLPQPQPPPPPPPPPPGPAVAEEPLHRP", "assay": "In vitro filter trap aggregation assay of mutant Huntingtin exon 1", "format": "biochemical", "protocol": "Mutant Huntingtin and PolyQ51 aggregation reactions were performed at concentration 3 μM of mHttQ51, 0.044 Units/μl acTEV protease (Invitrogen, Carlsbad, CA, USA), and respective concentrations of Ovalbumin (Sigma) or purified NAC chaperone variants. Aggregation was conducted in TEV reaction buffer (Invitrogen) and incubated at 30° C. AtxQ78 was buffer exchanged into TEV reaction buffer using 7K MWCO Zeba Spin Desalting Columns (Thermo Fisher) to initiate aggregation. AtxQ78 aggregation reactions were performed at 30 μM of Ataxin-3 in reaction buffer (20 mM sodium phosphate pH 7.5, 25 mM NaCl, 6 mM MgCl2, 2 mM DTT, 5% (v/v) glycerol) and incubated at 37° C. Samples at varied time-points were then taken and combined in a 1:1 ratio with a 4% (w/v) SDS, 100 mM DTT solution, boiled for 5 min at 95° C., and stored at −20° C. Samples were then filtered through a 0.22 μm cellulose acetate membrane (Whatman) and washed with 0.1% (w/v) SDS. Membrane was probed using an S-tag antibody (Abcam) for mHttQ51 and PolyQ51, and with a His-tag antibody (Abcam) for AtxQ78."}, "FlucDM-EGFP": {"target": "T2, FlucDM-EGFP (Photinus pyralis, UniProt P08659, R188Q/R261Q)", "T2 construct": "expressed in transfected cells; host or cells: C. elegans muscle cells (transgenic strain, unc-54 promoter)", "T2 sequence (P08659 whole entry R188Q/R261Q)": "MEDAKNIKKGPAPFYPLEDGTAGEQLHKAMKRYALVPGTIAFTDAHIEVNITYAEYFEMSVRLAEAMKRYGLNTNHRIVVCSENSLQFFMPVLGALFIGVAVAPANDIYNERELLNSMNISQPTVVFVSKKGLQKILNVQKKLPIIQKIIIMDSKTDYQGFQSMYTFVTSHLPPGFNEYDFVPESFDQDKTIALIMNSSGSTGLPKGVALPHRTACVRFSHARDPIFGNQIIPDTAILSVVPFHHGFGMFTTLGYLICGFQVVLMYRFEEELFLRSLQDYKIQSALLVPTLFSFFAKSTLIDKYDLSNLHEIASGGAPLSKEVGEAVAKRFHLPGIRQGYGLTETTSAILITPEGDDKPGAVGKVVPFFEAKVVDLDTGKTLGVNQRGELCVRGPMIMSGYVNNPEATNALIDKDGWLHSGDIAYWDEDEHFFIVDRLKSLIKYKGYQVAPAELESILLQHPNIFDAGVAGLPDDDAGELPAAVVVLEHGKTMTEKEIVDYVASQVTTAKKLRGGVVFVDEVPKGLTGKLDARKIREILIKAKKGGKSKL", "assay": "FlucDM-EGFP aggregation after heat-shock in C. elegans", "format": "in vivo", "conditions": "overexpressed in muscle cells; heat-shock 1 h, 33° C.; 24 h recovery at 20° C.", "protocol": "We further investigated NAC activity on luciferase refolding in vivo using a C. elegans strain expressing a structurally destabilized version of luciferase fused to EGFP (FlucDM-EGFP) in muscle cells (Gupta et al., 2011). This protein is soluble at moderate temperature but aggregates upon heat stress. After heat-shock (1 h, 33° C.) of worms, FlucDM-EGFP formed large punctate aggregates which were still evident in control animals after 24 h recovery at 20° C. (FIG. 4B, “ev”). […] Thus, efficient luciferase refolding by NAC depends on N-βNAC, in vitro and in vivo.\nWorms were cultured according to standard techniques with E. coli OP50 as food source (Brenner, 1974). Transgenic strains were generated using standard microinjection protocols (Mello and Fire, 1995). Constructs for overexpression of NAC in body wall muscles were generated by cloning the coding sequences of icd-1 (βNAC) and icd-2 (αNAC) into a vector containing the myo-3 promoter and the unc-54 3′-untranslated region (UTR). The NAC genes were N-terminally tagged with 3×FLAG. Mutant NAC constructs were generated by standard mutagenesis protocols. AM140 (unc-54p::Q35::YFP) and FlucDM-EGFP (unc-54p::luciferase::GFP) worms were injected with 25 ng/μl of each NAC plasmid together with myo-2p::mCherry (2.5 ng/μl) and DNA ladder (100 ng/μl, GeneRuler 1 kb, Thermo Scientific). […]"}, "[2]": {"target": "GdmCl-denatured firefly luciferase (Photinus pyralis, UniProt P08659)", "sequence (P08659 whole entry)": "as the sequence (P08659 whole entry R188Q/R261Q) above, with Q188R, Q261R counted along it", "assay": "Luciferase refolding assay", "format": "biochemical", "conditions": "denatured luciferase preincubated 1:1 for 15 min at room temperature before adding Hsp70/Hsp40"}, "Aβ40": {"target": "T3, Aβ40 (Homo sapiens, UniProt P05067)", "T3 construct": "Aβ40 peptide was expressed and purified as described previously; made in house; host or cells: E. coli BL21 (DE3)", "assay": "Chemical crosslinking (BS3) and mass spectrometry of NAC-Aβ40 complexes", "format": "binding", "conditions": "NAC and Aβ40 both 18 μM, 37° C. 2 h", "protocol": "Aβ40 (18 μM) was incubated with purified NAC in a 1:1 molar ratio in Aβ aggregation buffer (20 mM sodium phosphate pH 7.5, 0.2 mM EDTA, 0.01% (w/v) NaN3) at 37° C. for 2 h. BS^3-h^12d^12 was added to the proteins at 20× molar excess and incubated for 30 min at 37° C. before quenching with 50 mM NH4HCO3. Crosslinked samples were gel-filtrated using a Superdex 75 column (GE Healthcare) and fractions containing crosslinked Aβ40-NAC complexes subjected to co-immunoprecipitation using Aβ antibody 6E10 (Biozol). Captured proteins were denatured with 1×SDS sample buffer under non-reducing conditions to avoid splitting of the antibody in heavy and light chains.\nGel pieces containing the crosslinked complexes were washed with 25 mM ammonium bicarbonate (pH 7.8) for 1 h with shaking. The solution was removed and the pieces destained three times with 25 mM ammonium bicarbonate in 60% acetonitrile. Gel pieces were dehydrated with 100% acetonitrile for 10 min and left to air-dry in a laminar flowhood for 1 h. Rehydration of the gel pieces was achieved by adding 0.1 mg/ml trypsin solution and incubating the samples on ice for 30 min. Excess trypsin was removed and the samples were incubated at 37° C. and 1000 rpm overnight. […] The extracts were pooled and concentrated using a SpeedVac before being analyzed using a nanoACQUITY LC-system coupled to a Synapt HDMS G2Si mass spectrometer. […]"}, "[3]": {"system": "PolyQ35::YFP C. elegans worms", "assay": "Paralysis assay", "format": "in vivo", "conditions": "overexpression; day 6 to 10 of adulthood", "protocol": "To analyze the percentage of paralyzed worms, 100 semi-synchronized (timed egg lay for 5 h) young adult worms of each strain were placed on a plate containing 150 μM 5-fluorodeoxyuridine. Screening of paralyzed worms was started at day 6 of adulthood."}}, "data": [{"molecule": "B1", "values": [{"measurement": "concentration dependence of mHttQ51 aggregation suppression", "setting": "[1]; 1×, 5× or 10× molar excess of human NAC", "result": "concentration dependent"}, {"measurement": "disaggregation of preformed mHttQ51 aggregates", "setting": "[1]; 6-hour time delay between initiation of aggregation and addition, 5× molar excess", "result": "did not disaggregate preformed mHttQ51 aggregates"}, {"measurement": "FlucDM-EGFP aggregates after heat-shock and recovery", "setting": "FlucDM-EGFP", "result": "fully revert back to diffuse GFP signal"}, {"measurement": "luciferase refolding by the Hsp70/Hsp40 system", "setting": "[2]", "result": "strongly enhanced over levels of just Hsp70/Hsp40 refolding"}, {"measurement": "interaction with Aβ40 (crosslinking-MS)", "setting": "Aβ40", "result": "interaction of Aβ40 with the N-terminal domains of NAC"}, {"measurement": "motility / age-associated paralysis of PolyQ35::YFP-expressing worms", "setting": "[3]", "result": "significantly improves motility"}]}]}
